# Results: paper PMC4440733 (PLoS ONE, 2015)
# B1: anti-EGFR/ErbB3 bispecific Ab (bsAb), generated from published MEHD7945A sequences (bispecific antibody, V domains shown)
# VH: EVQLVESGGGLVQPGGSLRLSCAASGFTLSGDWIHWVRQAPGKGLEWVGEISAAGGYTDYADSVKGRFTISADTSKNTAYLQMNSLRAEDTAVYYCARESRVSFEAAMDYWGQGTLVTVSS
# VL: DIQMTQSPSSLSASVGDRVTITCRASQNIATDVAWYQQKPGKAPKLLIYSASFLYSGVPSRFSGSGSGTDFTLTISSLQPEDFATYYCQQSEPEPYTFGQGTKVEIK
# notes: also called anti-EGFR/ErbB3 bsAb; two-in-one antibody; source: human embryonic kidney 293 cells, transient, purified (protein A)
# Columns and labels:
# His-tagged EGFR protein = target: T1, His-tagged EGFR protein (Homo sapiens (species , human …, UniProt P00533)); test: ELISA; plates coated with anti-his antibody; His-tagged EGFR or ErbB3 captured in PBS with 1% BSA, 1 h RT; gradient-diluted antibodies or DVD-Ig proteins 1 h RT; detected with HRP-conjugated goat-anti-human antibodies; conditions: both partners purified
# T1 construct: Epidermal growth factor receptor (EGFR); also called epidermal growth factor receptor; source: bought: Invitrogen
# His-tagged ErbB3 protein = target: T2, His-tagged ErbB3 protein (Homo sapiens (species , human …, UniProt P21860)); test: as above; conditions: both partners purified
# T2 construct: Receptor tyrosine-protein kinase ErbB3; also called receptor tyrosine-protein kinase 3; source: bought: Invitrogen
# T2 sequence (P21860 20-643): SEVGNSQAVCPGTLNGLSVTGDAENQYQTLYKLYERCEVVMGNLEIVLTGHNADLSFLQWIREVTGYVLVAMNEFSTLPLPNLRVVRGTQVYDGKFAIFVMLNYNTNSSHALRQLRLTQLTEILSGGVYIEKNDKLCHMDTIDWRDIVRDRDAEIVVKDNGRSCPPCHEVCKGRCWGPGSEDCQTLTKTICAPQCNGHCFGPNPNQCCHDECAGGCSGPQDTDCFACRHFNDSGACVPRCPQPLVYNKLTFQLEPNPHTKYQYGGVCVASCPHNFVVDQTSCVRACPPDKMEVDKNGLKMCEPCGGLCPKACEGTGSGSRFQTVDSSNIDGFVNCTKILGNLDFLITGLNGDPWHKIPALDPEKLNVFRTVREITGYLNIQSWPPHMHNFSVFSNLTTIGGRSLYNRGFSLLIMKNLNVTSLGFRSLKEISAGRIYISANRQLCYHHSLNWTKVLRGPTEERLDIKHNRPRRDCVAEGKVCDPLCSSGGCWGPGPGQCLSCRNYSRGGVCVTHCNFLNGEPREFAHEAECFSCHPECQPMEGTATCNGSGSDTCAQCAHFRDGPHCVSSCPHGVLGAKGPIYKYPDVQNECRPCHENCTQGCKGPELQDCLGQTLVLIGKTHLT
binder,measurement,setting,value
B1,EC50,His-tagged EGFR protein,1.3 nM
same,EC50,His-tagged ErbB3 protein,5.7 nM
